Patent publication US8198236B2, “Methods and compositions for the treatment of cancer” (Washington University, priority 2007, dated 2012)

Key:
[1] = Side effects on non-tumor tissues of treated mice (H&E staining, x-ray, weight)
Protocol: Hemotoxylin and eosin (H&E) staining was performed on tumor xenograft tissue, skin and intestine harvested at the end of Mesd treatment.
FIG. 24D: H&E staining of tail vertebrae treated with PBS, Mesd or Mesd peptide.

LRP6 = molecular target: T1, LRP6 (Homo sapiens, UniProt O75581); test: LRP6-mediated 125I-Mesd degradation in LRP6-transduced HT1080 cells; type: cell-based; conditions: 4 hours at 37° C.
T1 construct: expressed in transfected cells; host or cells: human HT1080 cells, retroviral vector pLNCX2
T1 sequence (O75581 20-1613): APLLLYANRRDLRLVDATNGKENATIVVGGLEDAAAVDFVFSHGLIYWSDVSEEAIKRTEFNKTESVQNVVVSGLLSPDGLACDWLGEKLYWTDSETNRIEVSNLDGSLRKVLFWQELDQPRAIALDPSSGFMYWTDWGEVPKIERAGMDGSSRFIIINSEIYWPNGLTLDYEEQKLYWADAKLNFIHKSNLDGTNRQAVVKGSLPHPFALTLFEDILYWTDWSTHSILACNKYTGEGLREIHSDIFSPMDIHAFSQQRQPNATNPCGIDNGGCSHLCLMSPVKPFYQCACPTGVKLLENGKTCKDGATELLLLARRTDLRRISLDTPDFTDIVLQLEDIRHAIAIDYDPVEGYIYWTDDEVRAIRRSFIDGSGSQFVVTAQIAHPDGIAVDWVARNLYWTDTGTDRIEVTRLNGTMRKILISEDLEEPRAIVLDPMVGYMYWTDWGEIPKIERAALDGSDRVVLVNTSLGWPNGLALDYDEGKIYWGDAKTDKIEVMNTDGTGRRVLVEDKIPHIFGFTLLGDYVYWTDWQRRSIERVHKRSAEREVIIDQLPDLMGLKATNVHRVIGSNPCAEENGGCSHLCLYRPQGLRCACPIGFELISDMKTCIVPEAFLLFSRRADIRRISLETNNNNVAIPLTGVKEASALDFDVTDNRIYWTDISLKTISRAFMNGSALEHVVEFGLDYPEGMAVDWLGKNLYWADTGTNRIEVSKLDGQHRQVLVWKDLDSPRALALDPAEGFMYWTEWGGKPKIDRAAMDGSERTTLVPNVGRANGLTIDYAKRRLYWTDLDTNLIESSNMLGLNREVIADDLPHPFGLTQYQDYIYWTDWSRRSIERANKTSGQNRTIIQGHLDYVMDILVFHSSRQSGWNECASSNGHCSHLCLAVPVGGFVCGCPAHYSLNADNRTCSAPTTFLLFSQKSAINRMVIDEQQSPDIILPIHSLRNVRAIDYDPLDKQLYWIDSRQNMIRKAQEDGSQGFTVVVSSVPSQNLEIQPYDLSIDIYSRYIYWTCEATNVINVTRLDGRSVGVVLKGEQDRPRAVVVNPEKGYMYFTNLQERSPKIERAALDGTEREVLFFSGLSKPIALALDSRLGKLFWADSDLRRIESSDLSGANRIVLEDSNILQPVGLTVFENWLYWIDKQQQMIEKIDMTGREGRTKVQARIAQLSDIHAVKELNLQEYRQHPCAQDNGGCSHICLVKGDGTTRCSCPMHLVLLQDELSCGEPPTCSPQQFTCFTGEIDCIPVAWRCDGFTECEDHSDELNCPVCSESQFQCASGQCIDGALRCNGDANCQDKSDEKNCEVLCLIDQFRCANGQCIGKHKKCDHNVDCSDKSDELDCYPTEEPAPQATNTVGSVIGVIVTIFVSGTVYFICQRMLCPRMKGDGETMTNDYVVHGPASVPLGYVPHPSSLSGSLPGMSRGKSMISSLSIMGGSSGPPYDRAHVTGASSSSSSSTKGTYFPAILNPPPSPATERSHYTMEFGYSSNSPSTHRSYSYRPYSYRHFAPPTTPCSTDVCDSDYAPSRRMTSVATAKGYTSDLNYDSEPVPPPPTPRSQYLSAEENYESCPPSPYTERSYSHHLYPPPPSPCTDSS
Protocol: Ligand degradation was performed using the methods as described in Li, Y., et al., J. Biol. Chem. 275: 17187-17194, 2000. Briefly, 2×10^5 cells were seeded into 12-well dishes 1 day prior to assay. Pre-warmed assay buffer (minimal Eagle's medium containing 0.6% BSA with radioligand, 0.6 ml/well) was added to cell monolayers in the absence or the presence of unlabeled 500 nM RAP or 500 nM Mesd, followed by incubation for 4 hours at 37° C. Thereafter, the medium overlying the cell monolayers was removed and proteins were precipitated by addition of BSA to 10 mg/ml and trichloroacetic acid to 20%. Degradation of radioligand was defined as the appearance of radioactive fragments in the overlying medium that were soluble in 20% trichloroacetic acid. Kinetic analysis of endocytosis LRP6-transduced HT1080 cells were plated in 12-well plates at a density of 2×10^5 cells/well and used after overnight culture. Cells were rinsed twice in ice-cold assay buffer (minimal Eagle's medium containing 0.6% BSA), and ^125I-anti-HA IgG was added at 1 nM final concentration in cold assay buffer (0.5 ml/well). The binding of ^125I-anti-HA IgG was carried out at 4° C. for 90 minutes with gentle rocking Unbound ^125I-anti-HA IgG was removed by washing cell monolayers three times with cold assay buffer. Ice-cold stop/strip solution (0.2 M acetic acid, pH 2.6, 0.1 M NaCl) was added to one set of plates without warming up and kept on ice. The remaining plates were then placed in a 37° C. water bath and 0.5 ml assay buffer prewarmed to 37° C. was quickly added to cell monolayers to initiate internalization. After each time point, the plates were quickly placed on ice and the assay buffer was replaced with cold stop/strip solution. ^125I-anti-HA IgG that remained on the cell surface was stripped by incubation of cell monolayers with cold stop/strip solution for a total of 20 minutes (0.75 ml for 10 minutes, twice) and counted. Cell monolayers were then solubilized with low-SDS lysis buffer and counted. […] The fraction of internalized ^125I-anti-HA IgG after each time point was calculated and plotted. […]

B1: Mesd: Recombinant full-length mouse Mesd expressed in E. coli, N-terminal polyhistidine tail, lacking the signal peptide (protein)
chain: ADTPGEATPPPRKKKDIRDYNDADMARLLEQWEKDDDIEEGDLPEHKRPSAPIDFSKLDPGKPESILKMTKKGKTLMMFVTVSGNPTEKETEEITSLWQGSLFNANYDVQRFIVGSDRAIFMLRDGSYAWEIKDFLVSQDRCAEVTLEGQMYPGKGGGSKEKNKTKPEKAKKKEGDRKPRASKEDNRAGSRREDL
modifications: left off: small tags and cut ends
notes: Recombinant full-length mouse Mesd expressed in E. coli, N-terminal polyhistidine tail, lacking the signal peptide
[1]; FIG. 17E
  Adverse effect on small intestine (gross examination): no significant adverse effect
[1]; after 10 treatments
  Architecture of gastrointestinal compartments and skin (H&E): morphologically normal
[1]; conditions in which antitumor efficacy was achieved
  Bone lesions or outgrowths in tail vertebrae: no significant bone lesions or outgrowths
[1]; mouse, in vivo
  General health and body weight of treated mice: grossly healthy and maintain their weights
LRP6; 5 nM
  125I-Mesd degradation: 320 fmoles/mg cell protein
LRP6; 500 nM unlabeled competitor
  Inhibition of 125I-Mesd degradation: completely
